Results from the DeepSol protein solubility set.

Test: soluble on expression in E. coli; label from the status in PepcDB or PDB records

| Sequence | soluble on expression in E. coli |
| --- | --- |
| MGSDKIHHHHHHMFVNRRAELKILHSAYESLKRGEKVNVAIIGPRRIGKTELLLKFKEEVNGVVPYLNLQRIGSLESFIFAYTRELLYEIAKVVGMSIERSDLLTWDDLLILSAKLDLEREVKAIRDGTLETLFEMQEAILEKTGQKAVFILDEFQEVVNFKGFLETMRAVTEKQRNIAYFISGSAVRMMEEILAPKNPFFGQFKRVYLRGLPKEDTIELAKTTLERAGIEATHSALELIYKLTQGHPFYVLALCRRLIEEGFEKVKSRDVYYAFLTELLSEKGDIYMHLEYLFNESLSRAYKGPIHKQILLILAQEEGLRLSEIARRLNKPSGEVSNYLKFLLRTDLILKQGERYYFTDKLMRFWLAKTYLGITELELRRERFLEELVRELEEKYLKAKKELGIAKEAMIRERMREIFDIDFKPYRRGDVEFDGVAFRDGVYVLEIKWRNRPATYKDVKDFIRKVKGEFGSATMFFFSRSGFTEKAKELCEKEGVKMLTPKDLGIS | not soluble |
| MGSDKIHHHHHHMFYYERVNQFDTIAVSVDSVDRRRIKGTIDLDGLKFIMYFDYTQDVDIDYDLAGMIMTMPVINYAYFAKRIKLNFPVSLSFLKLVKEFIRINNIETFINSIVRRRYEFFLKEYLPSDEEITQENAEGRTEVLADISDGDKKKLEVDDRKVIVLSSGGKESLLTFGILKEIGAVVYPVFFNESGAHWKTAKVAYDYFSSKYENVLRVWSNVDRFYSFVNRHLKILDQDEIRRKADSYPVQMFIFPVYIFSVLPYVIKYGIGNIALGDELDDPIYEEPYHGIKHYYGVYDQTNDFNLTLTSFLREYGIHCKVFSAVYPIFGTLVEKILVQRYNDLFRVQRSCHLCHYEGGDVKPCGTCSKCLGVLLFMLNAEADPTEAGYSIEHVKQLEDNVNSASMRLDPDELEYLKAKVFEGRRINSHIEGIHQLPGENSAFSLVPERFRDGVRSIVSKYSTGFYKFVGSEWVKID | not soluble |
| MGSDKIHHHHHHMGDKYLTLSELNLEGQLLGFVGGEPGKYKYLQLAVPSGNVEIKLPKELRRSLSLSLVPGQHIRICGHSKVDSRTSKIKIKAYRVTPIDGCPKQDLPPQIKARIMVCQKGGCLKRGGKGLLSDLEKTLCDRGLLDKVTIEHTSCQKCCNSAPNCVLHLGKKKYKNIHPDAIASLLESHLTE | not soluble |
| MGSDKIHHHHHHMGFVKPFSKINGSIIMVILGLLASACGQSGSETGGLVDANEPVSPQPNLGEQQGVLEQNLPVPNNQQTDYFRVILYGNSHVSGLPSLIQLLINTGVPQVRVEVKNVGGGFLDESYYNDAYQARLTATPWTHAIFQGQKYSQSGTSIYPTTAAQKWLDKAKSLGITPILFPEHPQDGKLEEGEYVYQLHQGITSMQSSCLAPIPLVWERVIQLLPDVHLHAPDGNHASSLGNFLTALVFYEVITGRSADLLPYLSNIAISEQIQSIFGQVVSEVLADKPACPTF | not soluble |
| MGSDKIHHHHHHMGFVSTTFDVLIIGAGPSGASAAVHAARTGLQTLLIDASSFPRDKTCGDGLTPRAIHQLELLGVADQVTGDYFNKGLKLHGFGGSVEAPWPETYFTNKGSAMSRMEFDDLLFRLAKSHEEVTTWENASAQDPILRGNFLEGVVINHAGQEKTVKAKHVIIADGVRSPFGKKLGRQWQRDEVYGIAARAYCETPLSDEPWIHSHVELRDEDGVVQPGYGWIFPLGNGTVNLGCGALSTDTRPAKINTKKLLSFYAGQRRKAWQLGPEHDVASALLPMGGAVSNVAGANWMLIGDSAACVNPLNGEGIDYGLETAAMAVDTLVENPKRDLTLVWPHRLRDAYGETFMLARTAARLLTYPQFLPMAGPLAFRGPLQKAIMPAAARLMGNLITEEDKDLLARGWQAAGSAISWARKGSPLWDSTSSLV | not soluble |
| MGSDKIHHHHHHMGIIATSFIPFRGLSVSNLSETNFSETSNANVDPQEIAKFEKMAATWWDPEGEFKPIHKLNPLRLNYIDQAVGGLFGKRVLDVGCGGGILSESMARLGARVDGLDMGAEPLDVAKLHALEMGVEINYIQDTAEHHRDSHQGQYDVVTCMEMLEHVPDPASVIKACSDMVKPGGYVFFSTINRNIRAYVETVIGAEYLLKMLPVGTHDHKKYIKPAELIGMADAVDLECVDATGITYNPLTEIFRYTKSLDVNYMIATVKQDD | not soluble |
| MGSDKIHHHHHHMGIKIPNMKPNYSLDDMRCFCMVAQYGSFKQAAVALQMPLSTLSRRIAKLEQDLALRLFNRDAHRVQLTFAGQRYYRRSAPIFDELDNVAACLQQDRNEAKGTIRISAPINFSVQVLVHHFNAFMRQYPDIELDLKLSNQTIDIDEEAMDLAFRIGHHSATHWIGRQLTNIRFAICGPANLDVSHIKAPADLAGLPTVLCSPMLTWSLQHIHSGEKQAYTATDNIRLKVDDMSLLTEVIAGGIGVGFIPDYHAQPLLESGKIQHILPAWSNQARGCEMLYRDRENIPYRVRLFIDFMLQRFKSNDGVM | not soluble |
| MGSDKIHHHHHHMGIRAGESGNSLSKALLEIEKEQPAPCYLLYGDAEYEISDAFTKIIDALLSPEDQALNLFVLDGEDEDPERIGENLMTPPLLPGRKVVAVRRTQLFSSRKTLKDLVKRIREQLNGKPQQAAKTFMTFLSLAGWNLEDFKGDGWKAISDKDWQTTVEGDAGEDRIKWLPQVVEVCVDLGLKGRSATGGGTDHLEAILRDGLPAGNVLLLTAESVDKRKKLFKTISELGRVLPFVVEKGEARQKNTLMDSARDLLATRGKRMSSGAWEVLGRKTGFQLRNSMAALEKLITYTGERKTIEVSDVEEVISRTREDKVFDLTAALAEKNLKGALSVLRSLREQGIHSLVILSMIVREMRLLLHARQLRNEGALPGYQPRMDYGRFQKSIYPTVKGWAGQAGDVHIELADSHPYVVFNILRNSENFSEKRLKRHLEDLLAMDLAMKSTAKDADLMLERFLIDVCRP | not soluble |
| MGSDKIHHHHHHMGIYMRDDILDIITLTTDFGTNEGYVGAMKGRILNILKKYNKDAKIIDISHEIKPFNIYHGAYVLLTAIPYFPPSVHVAVIDPTVGSERKSIVIETKSGYYLVGPDNGLFTYVAEKLGIKRIIKIDEERYKPSSTFHGRDVYAVVGAEILINNGYDGEELDEMVKIDETKKRVIHIDRFGNIITNIKKDEVTFKYYDTIMIKIRHKNGIEKIIKCKFVKSYFEEKNNFICLINSEGFLEISKFMDNASKLLNVDYLDEIEIIY | not soluble |
| MGSDKIHHHHHHMGLEDLYLSWPKWFSEALARYSSLEGALEGVEEIYYCGMGGSGAAGDYIEALLSIYAPQGPEFRVVKDFRPPRPPRHRGYGLVLASYSGNTLETVECGSLLSPAAGRVVAVTSGGRLLEMAKERGWLVARLPGGILPRVSFPWMLAASTAMLSGALGVDLEALKRLAGGLDTQGLKGEAERLAGFISRYRIASLVTCGPGIPLAVRLKNELAENAKMPSRLEIYPESSHNDIVALEAAEGLYGAVFIWIEHEGSLCPAVLDVVEGIYREYGVDTISIESSARGGPNATVAEYLSRTLVFGLASVRLALMRGFNPEETPPIDKYKRRLGEALRSQA | not soluble |
| MGSDKIHHHHHHMGLTLRQIEVIRAVMIAGTIAGAARLMNVAQPGVSRTMKHIESALGIKLFVKKAGRYVPTDEARDIFAQLQEVHRKVDDLQSSIGQLERGRGVELALGSVPSIANAMMPQAIAGLMRRYPDIRINFDILRIEEAIDYLLLGKGELVAMSYHLTHPSITFEPLSKGHLVCIAAREHPIAGRSRISAREIAEHPLIGIDPRDPYGAIMAGIFEREKLEYRTPIRARFGTTVCALVKRNLGIAVIDAFTVGGMADQGLAVIPISEDTEFQTYVAYRADAALSSYAERLVTTLRRVMDDSTGRSRGGRDA | not soluble |
| MGSDKIHHHHHHMGMNQISQDQIGQARILVVGDMMLDRYWFGDVERISPEAPVPVVQIKRSDERLGGAANVARNSAALGAQVGMLGVVGDDEPGRTIESLLSACKVQPYLHRDASVNTTIKLRVLAHQQQLLRVDFENPPTHEVLLSVLEGFQELVKQYEVLVLSDYGKGGLTHVGRMVEAGRAAGRMVLVDPKGDDYSRYRGATLITPNRAEIRRVVGAWKSEQDLTARAQNLRRDLQLEALLLTRSEEGMTLYTEAEVLHVSAQAREVYDVSGAGDTVIATLATMLAAGVSLKQAVQFANRAGGIVVGKLGTAVVSYPELFGAAG | not soluble |
| MGSDKIHHHHHHMGPYRFVNREFLIITYRTDMDRLREIVPEPLEVKEPLVHYEFIRMPDSTGFGDYTESGQVIPVEYKGQPGGYTLAMYLNDHPPIAGGRELWGFPKKLAQPTLQTHIDTLLGTLDYGPVRVATGTMGYKHQELDLEEQAKRLAGANFLLKIIPHVDGSARVCELVRYYLQDIEMKGAWTGPASLQLAPHALAPVADLPVLEIVEARHLLADLTLGLGEVVYDYLAQ | not soluble |
| MGSDKIHHHHHHMGRMKNTFPFVITISRQLGAGGAYIGQQLAKKLSIFYADREIIGQAARKLSVMEEELEPRDEKSLSLWQFLIQSCACTPETSYIPPQITVPSDRELFKTESEIITRIAQEHSTVIIGRCGSYILREHPNHVSMFLHGDLSFRKSRIQKIYHVSENVAEKMIVQSDEERSQYHYKFTGKDWADARQYGLSVNTGRTGVDKTVDCILTYLELIKVRDCIP | not soluble |
| MGSDKIHHHHHHMGRTLGVGTVTPNLIGAHRDLIQRYGGHYPVISAHIWFDGTGLDPRYQYVTVLRDPVDRFISWLYFIDKDVELTEDTRELKVGAQLFLRSEGEETNQTFMRSASNPYVNNFSSVVMRCNASWQQKMVAALSVLTDYDLVGFQADLPQFIEQLAKLLHVINYVSLRPVNVTSSRPQRDGISEKMLHAIRKLTEWDLELYSEIQRMANRQAPTIGVSCNIQPFNREFGDWGFKARKSSNVYWLGSYLTHYLAKDLSTRNGSVAGRALVSNGAKGYLCHGPYLDLDPGHYCAVANGVWITRGVTCNADVCSGKGAVLHAEETLVDLGAKGTEWSLPVDFALDEETTSVEFRLMVPDEHQVQLNTVTIVNEKMVMTILGLEPDSHAANRGVEKQNSGSTLIFPVQMSSKIGLRVGTTLQTTGQEGFLCYGPYMTLSRGIYRVNLMGSIGPQGLAGAYADIVCDAGKKGIHNEPLAITPFNEYVDSTVGKPWMFFLEQDVSDLEIRLWVSNQTEINLCGIVLQQIEET | not soluble |
| MGSDKIHHHHHHMGRVLIIGAGGVGTVVAHKVAQNADVFTDIMIASRTKEKCDNIVKAIGNPNIKTAKVDADNVDELVALFNDFKPEMVINVALPYQDLTIMEACLKAGVNYLDTANYEPKDEAHFEYSWQWAYHDRFKEAGLTAILGCGFDPGVSGIYTAYAAKHYFDEIQYLDIVDCNAGNHHKAFATNFNPEINIREITQNGRYYENGQWVTTGPLEIHKDLTYPNIGPRDSYLLYHEELESLVKHFPTIKRARFWMTFGQEYLTHLRVIQNIGMARIDEVDYNGTKIVPLQFLKAVLPNPQDLGENYEGETSIGCRIRGIKDGKERTYYVYNNCSHQEAYKETGMQGVSYTTGVPAMIGAMMFFKGEWQRPGVNNVEEFNPDPFMEQLNKQGLPWHEVFDKDLEL | not soluble |
| MGSDKIHHHHHHMHEVVQDYYGKQLQSTEDLKTSACCDVSNMPSWLKPLLANIHDEVLSRYYGCGLVCPALLEGCRILDLGCGSGRDVYALAQLVGSTGHVVGVDMTDEQLAIAKQHQDYHVDKFGYDNVTFLKGYIEKLDELNLDPNSFDIIVSNCVINLSPDKAAVMASVQRLLKPGGEFYFSDVYADRRIPQQLINDPVLYGECLSGALYWKDFERLARHADFLDPRLVEDRPLEITDPLLAAKIGDIQFFSATYRLFKIATLEDACEDHGQAVIYRGTIDQLPHHFNLDKHHAIETGRVFPVCGNTFRMLKESRFAKHFDFIGDDSRHYGIFAGCGDILPFGNQANIVSDSNVGQSVNSGSCC | not soluble |
| MGSDKIHHHHHHMHFSKEHINALETRTRAHFINSLSGFKSANLIGTQDRQGNTNLSIVSSVIHLGANPPLMGMIIRPHSVPRHTFENIMQTGLYTINHVNQSIYEQAHQTSARYDKDESEFEATGLTPEYLSDFCAPFVKESRLKYSVKLVEHQHLAINGTEFVIGEIVDVYVDDNAVQTDGFIDLQAIDTVAISGLDCYYTGDKLARLPYAKK | not soluble |
